In paper PMC4263767, “IL-28B is a Key Regulator of B- and T-Cell Vaccine Responses against Influenza” (PLoS Pathogens, 2014):
Entries after “also recorded” stand apart in the source; their conditions may differ. Read-outs that look alike come from different tables or passages of the source.

Columns and labels:
[1] = test system: PBMCs from healthy volunteers; type: cell-based, human
[2] = test system: B-cells in PBMCs from healthy volunteers; assay: H1N1-stimulated B-cell proliferation (Cell Trace Violet); type: cell-based, human
[3] = test system: T-cells, monocytes and macrophages; settings: ref [42], [43]; cited from earlier work
Description: The IFN-λ family (Interleukin-28A, -28B, -29, and IFN-λ4) is a recently described class of IFNs with antiviral properties similar to IFN-α and -β [14]–[17]. IFN-λ is known to induce phosphorylation of STAT-1 and -2 via binding to its receptor, which is a heterodimer consisting of the IL-28 receptor alpha subunit (IL28RA) and IL-10 receptor beta subunit (IL10RB). […] Furthermore, IFN-λs induced the development of T-regu ... || IL-28B (IFN-λ3) belongs to the family of IFN-lambdas and shares antiviral properties similar to IFN-α via induction of interferon stimulated genes (ISGs) such as MX1 or OAS1 [41]. […] IL-12 is a key cytokine for the induction of Th1 cells and cytotoxic lymphocytes, [43]. SNPs in the IL-28B gene (minor-allele genotypes) have been associated with reduced IL-28B expression, [29]–[33], which could impact adaptive immune functions during vaccination. One limitation of our study is that we d ...

[4] = test system: CD3+CD4+ T-cells in PBMCs from transplant recipients; type: cell-based, human
[5] = test system: PBMCs from healthy volunteers; type: cell-based, human; settings: 0 ng/mL: 19.2%, p = 0.92
Protocol: Prior to surface staining, LIVE/DEAD staining was performed (near-IR; Invitrogen). Markers for identifying T-cell subsets were CD3, and CD4. Intracellular cytokine staining was performed according to previously published protocols after overnight stimulation. IL-4 was used as a key representative for Th2 cytokine production. Background (unstimulated samples) were subtracted from stimulated results. All reagents including perm and fixation buffers and antibodies were from eBioscience. Isotype controls have previously been used to establish the assays.

[6] = test system: PBMCs from transplant recipients; type: cell-based, human; settings: IL-28B 100 ng/mL, 2 h before 5-day H1N1; 38 transplant recipients; p = 0.004
[7] = test system: PBMCs from transplant recipients; assay: Cytokine release by H1N1-stimulated transplant recipient PBMCs, overnight (luminex); type: cell-based, human
[8] = test system: PBMCs from healthy volunteers; assay: Time course of cytokine release, independently recruited healthy volunteers (S3 Figure); type: cell-based, human; settings: IL-28B 100 ng/ml
Description: Two luminex-based cytokine profiling kits were used (Eve Technologies, Calgary, Canada). (i) 17-plex: Fractalkine, IFN-α, IFN-γ, GRO, MCP-3, IL-13, sCD40-L, IL-9, IL-1β, IL-2, IL-4, IL-5, IL-6, IP-10, MCP-1, MIP-1α, and TNF-α. (ii) 41-plex: EGF, Eotaxin, FGF-2, FLT3, Fractalkine, G-CSF, GM-CSF, GRO. IFN-α2, IFN-γ, IL-1α, IL-1β, IL-1ra, IL-2, IL-3, IL-4, IL-5, IL-6, IL-7, IL-8, IL-9, IL-10, IL-12p40, IL-12p70, IL-13, IL-15, IL-17, IP-10, MCP-1, MCP-3, MDC, MIP-1α, MIP-1β, PDGF AA, PDGF AB/BB, RANTES, sCD40L, sIL2ra, TGF-α, TNF-α, TNF-β, and VEGF. Our independent experiment for examining a time course of cytokine induction was a custom-plex based on the 17-plex and still run and analyzed by Eve Technologies.
Supplementary file ppat.1004556.s003.tiff: S3 Figure A cytokine profile with pH1N1 stimulation +/− IL-28B pre-treatment (100 ng/ml) was performed. The time-points were collected within the same experiments. For the first 3 HVs studied, d+5 sample was not collected. Overall, the time-points d+1, d+3, d+7 were available in total 10 HVs and for d+5 in 7 HVs. Wilcoxon matched pairs rank test was used to test for significant difference. (TIFF) Click here for additional data file.

[9] = IL-28B 100 ng/mL, overnight H1N1, p=0.04
[10] = IL-28B 100 ng/mL, overnight H1N1, p=0.39
[11] = IL-28B 100 ng/mL, overnight H1N1, p=1.00
[12] = IL-28B 100 ng/mL, overnight H1N1, transplant PBMCs, median (IQR)

B1: IL-28B: recombinant IL-28B, a member of the interferon (IFN)-λ family (protein)
chain: VPVARLRGALPDARGCHIAQFKSLSPQELQAFKRAKDALEESLLLKDCKCRSRLFPRTWDLRQLQVRERPVALEAELALTLKVLEATADTDPALGDVLDQPLHTLHHILSQLRACIQPQPTAGPRTRGRLHHWLHRLQEAPKKESPGCLEASVTFNLFRLLTRDLNCVASGDLCV
modifications: left off: His tag, end not stated, kept
notes: recombinant IL-28B, a member of the interferon (IFN)-λ family
- reduction of IgG-production ([1]; abstract, in vitro): > 70%
- lower H1N1-stimulated IgG antibody production ([1]; highest dose of IL-28B (100 ng/mL), 5-day H1N1, n = 8): 70%
- reduction in proliferation capacity of memory B-cells ([2]; 5-day H1N1, n = 6): 70%
- H1N1-stimulated B-cell proliferation (in words) ([2]; IL-28B 1, 10, 100 ng/mL, 5-day H1N1, n = 6): dose-dependent decrease
- reduction of H1N1-stimulated B-cell proliferation ([2]; abstract, in vitro): 70%
- IL-12 production in monocytes and macrophages [3]: induce IL-12 production in monocytes and macrophages
- fold reduction in IL-4 production by CD3+CD4+ T-cells ([4]; IL-28B 100 ng/mL, 2 h before overnight H1N1, transplant recipients n = 47): > 2 -fold
- sensitivity of IL-4 production to IL-28B by genotype ([4]; minor allele (TG or GG) PBMCs, 45 transplant recipients): particularly pronounced in patients with a minor allele genotype; also recorded: strong sensitivity to IL-28B
- median % dead cells ([5]; IL-28B 1 ng/mL): 19.9%
- median % dead cells ([5]; IL-28B 10 ng/mL): 23.6%
- median % dead cells ([5]; IL-28B 100 ng/mL): 22.6%
- H1N1-induced IgG production with IL-28B (in words) [6]: significantly decreased
- H1N1-stimulated Th1-cytokine expression (IFN-γ, IL6) ([7]; IL-28B 100 ng/mL, 2 h before overnight H1N1, n = 36): significant increase
- IFN-α, ratio IL-28B/no IL-28B ([7]; IL-28B 100 ng/mL, overnight H1N1, p=0.001): 2.9
- IFN-γ, ratio IL-28B/no IL-28B [7, 9]: 2.1
- MIP-1α, ratio IL-28B/no IL-28B [7, 9]: 1.8
- sCD40-L, ratio IL-28B/no IL-28B [7, 9]: 1.0
- IL-6, ratio IL-28B/no IL-28B ([7]; IL-28B 100 ng/mL, overnight H1N1, p=0.05): 2.4
- IP-10, ratio IL-28B/no IL-28B ([7]; IL-28B 100 ng/mL, overnight H1N1, p=0.14): 1.0
- MCP-3, ratio IL-28B/no IL-28B ([7]; IL-28B 100 ng/mL, overnight H1N1, p=0.33): 1.2
- Fractalkine, ratio IL-28B/no IL-28B [7, 10]: 5.0
- TNF-α, ratio IL-28B/no IL-28B [7, 10]: 1.9
- IL-1β, ratio IL-28B/no IL-28B ([7]; IL-28B 100 ng/mL, overnight H1N1, p=0.44): 1.0
- MCP-1, ratio IL-28B/no IL-28B ([7]; IL-28B 100 ng/mL, overnight H1N1, p=0.61): 1.0
- IL-2, ratio IL-28B/no IL-28B ([7]; IL-28B 100 ng/mL, overnight H1N1, p=0.86): 1.1
- IL-4, ratio IL-28B/no IL-28B ([7]; IL-28B 100 ng/mL, overnight H1N1, p=0.92): 1.0
- GRO, ratio IL-28B/no IL-28B [7, 11]: 1.0
- IL-5, ratio IL-28B/no IL-28B [7, 11]: 1.0
- IL-9, ratio IL-28B/no IL-28B [7, 11]: 1.0
- IL-13, ratio IL-28B/no IL-28B [7, 11]: 1.0
- Fractalkine [7, 12]: 16.1 (3.2-60.2) pg/mL
- GRO [7, 12]: 3.2 (3.2-3.2) pg/mL
- IFN-α [7, 12]: 1290.8 (502.4-1969.9) pg/mL
- IFN-γ [7, 12]: 48.0 (13.9-133.3) pg/mL
- IL-1β [7, 12]: 0.6 (0.6-4.0) pg/mL
- IL-2 [7, 12]: 61.5 (6.0-168.9) pg/mL
- IL-4 [7, 12]: 0.6 (0.6-1.5) pg/mL
- IL-5 [7, 12]: 0.6 (0.6-0.6) pg/mL
- IL-6 [7, 12]: 104.0 (15.0-156.6) pg/mL
- IL-9 [7, 12]: 0.6 (0.6-0.6) pg/mL
- IL-13 [7, 12]: 0.6 (0.6-0.9) pg/mL
- IP-10 [7, 12]: 8336.4 (7362.5-9289.1) pg/mL
- MCP-1 [7, 12]: 0.5 (0.5-827.4) pg/mL
- MCP-3 [7, 12]: 760.9 (398.3-2500.5) pg/mL
- MIP-1α [7, 12]: 321.4 (173.7-485.3) pg/mL
- TNF-α [7, 12]: 23.2 (0.7-44.8) pg/mL
- sCD40-L [7, 12]: 0.6 (0.6-77.7) pg/mL
- Th1-cytokines (in words, abstract) ([7]; in vitro): increased Th1-cytokines (e.g. IFN-γ)
- IFN-γ (in words) [8]: trend for upregulation
- Th1 and Th1-associated cytokines, early time-points (in words) [8]: significantly up-regulated (IFN-α, IL12p40, TNF- α, and IL-6)
- Th2 and Th2-associated cytokines, later time-points (in words) [8]: down-regulated
